Experimental data from publication PMC11541587 (Nature Communications, 2024).

Target: HA-AMFR (UniProt Q9UKV5 1-643)
Assay: co-IP

Sequence of HA-AMFR (Q9UKV5 whole entry): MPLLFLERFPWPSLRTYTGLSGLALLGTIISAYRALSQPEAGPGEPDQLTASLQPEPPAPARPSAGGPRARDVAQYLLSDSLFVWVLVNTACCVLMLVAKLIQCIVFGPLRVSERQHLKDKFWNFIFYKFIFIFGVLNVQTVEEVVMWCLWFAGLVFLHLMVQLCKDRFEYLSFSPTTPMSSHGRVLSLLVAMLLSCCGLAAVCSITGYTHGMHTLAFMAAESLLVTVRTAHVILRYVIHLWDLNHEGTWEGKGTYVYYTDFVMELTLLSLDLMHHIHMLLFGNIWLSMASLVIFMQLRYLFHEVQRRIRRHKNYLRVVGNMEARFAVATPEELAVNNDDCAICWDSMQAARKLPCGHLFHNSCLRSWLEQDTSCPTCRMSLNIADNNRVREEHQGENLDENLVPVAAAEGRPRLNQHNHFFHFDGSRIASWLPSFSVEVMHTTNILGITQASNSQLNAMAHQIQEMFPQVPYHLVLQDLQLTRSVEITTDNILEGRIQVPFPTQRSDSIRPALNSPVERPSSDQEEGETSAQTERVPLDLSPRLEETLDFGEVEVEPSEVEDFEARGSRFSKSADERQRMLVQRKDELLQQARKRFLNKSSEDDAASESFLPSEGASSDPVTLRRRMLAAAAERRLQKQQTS

B1: FAM134B (construct and tag not told for these supplementary panels) (natural protein)
chain: MASPAPPEHAEEGCPAPAAEEQAPPSPPPPQASPAERQQQEEEAQEAGAAEGAGLQVEEAAGRAAAAVTWLLGEPVLWLGCRADELLSWKRPLRSLLGFVAANLLFWFLALTPWRVYHLISVMILGRVIMQIIKDMVLSRTRGAQLWRSLSESWEVINSKPDERPRLSHCIAESWMNFSIFLQEMSLFKQQSPGKFCLLVCSVCTFFTILGSYIPGVILSYLLLLCAFLCPLFKCNDIGQKIYSKIKSVLLKLDFGIGEYINQKKRERSEADKEKSHKDDSELDFSALCPKISLTVAAKELSVSDTDVSEVSWTDNGTFNLSEGYTPQTDTSDDLDRPSEEVFSRDLSDFPSLENGMGTNDEDELSLGLPTELKRKKEQLDSGHRPSKETQSAAGLTLPLNSDQTFHLMSNLAGDVITAAVTAAIKDQLEGVQQALSQAAPIPEEDTDTEEGDDFELLDQSELDQIESELGLTQDQEAEAQQNKKSSGFLSNLLGGH
  binding result: binds
